Assay results published in US20210060068A1 (Stanford University, published 2021).
Blank lines part the entries; values can stand above or below the binder they belong to.

B2: wild-type mouse IL-2 (ligand)
chain: APTSSSTSSSTAEAQQQQQQQQQQQQHLEQLLMDLQELLSRMENYRNLKLPRMLTFKFYLPKQATELKDLQCLEDELGPLRHVLDLTQSKSFQLEDAENFISNIRVTVVKLKGSDNTFECQFDDESATVVDFLRRWIAFCQSIISTSPQ
notes: Soluble protein flowed over the SPR chip; also called wt mIL-2; wild-type IL-2

Assays:
[1] = target: T1, yeast-displayed wild-type human IL-2 (human, UniProt P60568 21-153); test: FACS, yeast-displayed hIL-2 stained with receptor tetramers
T1 construct: also called wild-type IL-2; hIL-2
T1 sequence (P60568 21-153): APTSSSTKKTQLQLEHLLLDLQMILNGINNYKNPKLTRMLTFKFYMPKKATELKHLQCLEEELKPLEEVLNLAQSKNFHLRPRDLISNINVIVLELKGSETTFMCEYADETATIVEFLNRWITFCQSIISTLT
Description: We introduced the H133D Y134F mutations that were used to create the mouse orthol L-2Rβ into human IL-2Rβ, as these residues are highly conserved between mouse and human.
Yeast display of IL-2. […] Transformed yeast were passaged once in SDCAA and yeast cultures in log phase were pelleted and resuspended at an OD600 of 1.0 in SGCAA induction media containing 10% SDCAA and cultured for 24 hr at 20° C.

wild-type mouse IL-2Rβ = target: T2, wild-type mouse IL-2Rβ (mouse, UniProt P16297 27-240, limits assumed); test: SPR, soluble IL-2 over a receptor-coated chip, 1:1 binding model
T2 construct: Recombinant protein coated on the SPR chip or used to stain yeast; also called wild-type IL-2Rβ; mIL-2Rβ
T2 sequence: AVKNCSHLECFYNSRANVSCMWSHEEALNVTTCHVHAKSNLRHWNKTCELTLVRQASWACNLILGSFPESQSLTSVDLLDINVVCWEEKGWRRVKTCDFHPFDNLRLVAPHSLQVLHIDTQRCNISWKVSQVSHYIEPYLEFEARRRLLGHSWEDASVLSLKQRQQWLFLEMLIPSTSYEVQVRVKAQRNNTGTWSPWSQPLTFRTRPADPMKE
Description: Binding was determined by surface plasmon resonance (SPR) and curves were fitted using a 1:1 binding model.

wild-type mouse IL-2 = target: B2; test: surface plasmon resonance

- binding result [1]: no binding
B1: ortho human IL-2Rβ H133D Y134F mutant tetramers (receptor)
chain: AVNGTSQFTCFYNSRANISCVWSQDGALQDTSCQVHAWPDRRRWNQTCELLPVSQASWACNLILGAPDSQKLTTVDIVTLRVLCREGVRWRVMAIQDFKPFENLRLMAPISLQVVHVETHRCNISWEISQASDFFERHLEFEARTLSPGHTWEEAPLLTLKQKQEWICLETLTPDTQYEFQVRVKPLQGEFTTWSPWSQPLAFRTKPAALGKDT
notes: Tetramers used to stain yeast; also called ortho-hIL-2Rβ; ortho hIL-2Rβ

Binder: B2
- binding result (wild-type mouse IL-2Rβ): binds

- binding result (wild-type mouse IL-2): no binding
B3: orthogonal mouse IL-2Rβ H134D Y135F (receptor)
chain: AVKNCSHLECFYNSRANVSCMWSHEEALNVTTCHVHAKSNLRHWNKTCELTLVRQASWACNLILGSFPESQSLTSVDLLDINVVCWEEKGWRRVKTCDFHPFDNLRLVAPHSLQVLHIDTQRCNISWKVSQVSDFIEPYLEFEARRRLLGHSWEDASVLSLKQRQQWLFLEMLIPSTSYEVQVRVKAQRNNTGTWSPWSQPLTFRTRPADPMKE
notes: Recombinant protein coated on the SPR chip or used to stain yeast; also called orthoIL-2Rβ; mIL-2Rβ H134D Y135F
